According to patent publication US20240350646A1, “METHODS AND COMPOSITIONS FOR DELIVERY TO AND ACROSS THE BLOOD BRAIN BARRIER” (NUtech Ventures, priority 2021, published 2024):

Test: K^trans DCE-MRI: brain region accumulation and retention of NPs
Format: in vivo, C57BL/6J mice
Details: for K^trans, corpus callosum (CC): 100 μL of 0.5 mM NP via tail vein
Method: Both male and female young (6-8 weeks) C57BL/6J mice (Jackson Laboratory, Bar Harbor, ME) and middle aged (12 months) C57BL/6J and CX3CR1-GFP (Jackson Laboratory, Bar Harbor, ME) from a C57BL/6J background mice were used. Mice were housed in a 12 h/12 h day/night cycle with ad libitum access to standard mouse chow and water. All animal work was approved by and performed under the guidance of the University of Nebraska-Lincoln IACUC.
In vivo NP assessment consisted of dynamic contrast-enhanced (DCE)-MRI using a 9.4T MRI system (Varian) to compare targeting agent effect on the uptake as previously described (Miller et al., 2019, Scientific Reports, 9:16099). Briefly, mice were induced with about 2% isoflurane gas and maintained at a concentration sufficient to achieve 50 to 80 breaths per minute. Baseline T1 maps were generated using a gradient-echo sequence and the variable flip angle method with two angles, 10° and 30° (Deoni et al., 2003, Magn. Reson. Med., 49:515-26). Mice were injected with 100 μL of a 0.5 mM NP solution via tail vein catheter followed by 100 μL PBS to flush all remaining NP solution. A flip angle of 30° was used for all post-contrast scans, which occurred for 1 h following injection. TR was between 54 and 84 ms, TE between 2.73 and 4.24 ms, matrix size between 128×128 and 256×256, FOV between 20×20×10 mm^3 and 25×25×10 mm^3 depending on the experiment. NEX varied with matrix size to maintain temporal resolution, with 128×128, NEX=5 for all scans, with 256×256, NEX=4 for baseline and 1 for post-contrast scans.
Following serial image acquisition, resulting in about 100 post-contrast scans per animal, R1, concentration, and K^trans mapping were performed using custom MATLAB script. R1 mapping was performed using the variable flip angle method based on the following equation (Deoni et al., 2005, Magn. Reson. Med., 53:237-41: […]
where SSPGR is signal intensity, α is FA, E1 is […], and M0 is a proportionality factor related to longitudinal magnetization. E1 describes the linear relationship between the two signal intensity ratios, taking the slope, m, of that line enables calculation of T1 as:
Concentration maps were then generated by comparison of baseline R1 maps with post-contrast R1 maps using the following equation: […]
where C(t) is the concentration at time t, R1(t) is the post contrast R1-value at t, RT(t0) is baseline R1, and r1 is relaxivity of the contrast agent. K^trans, the contrast extravasation rate constant, mapping was then performed using a reference region (RR) model derived from the extended Tofts' model (Tofts et al., 1999, J. Magn. Reson. Imaging, 10:223-232):
where CTOI and CRR are concentrations in the tissue of interest (TOI) and the RR, respectively, K^trans,TOI and K^trans, RR are K^trans in the TOI and RR, respectively, and ve,TOI and ve,RR are extravascular-extracellular volume fractions for the TOI and RR, respectively. Muscle tissue from within the FOV was used in all animals as the RR. MATLAB was used to execute a least squares curve fitting routine to calculate K^trans for each voxel in the brain.

[1] = old (1-year-old) mice, listed as C1C2-NPs

C1C2-NP: PEG diacid coated ultrasmall Gd NP conjugated with C1C2 peptide SSVSQSTGQIQSKVDSLLNLNSTQATR (SEQ ID NO: 6); claudin-1 targeted (Ac-SSVSQSTGQIQSKVDSLLNLNSTQATR-NH2; also: conjugated to PEG diacid coated ultrasmall Gd nanoparticle)
K^trans, cortex (CTX) (old (1-year-old) mice): 0.0148 min⁻¹
K^trans, hippocampus (HC) (old (1-year-old) mice): 0.0040 min⁻¹
K^trans, hypothalamus (HT) (old (1-year-old) mice): 0.0102 min⁻¹
K^trans, muscle (old (1-year-old) mice): 0.0057 min⁻¹
K^trans, corpus callosum (CC) (old (1-year-old) mice): 0.0058 min⁻¹
K^trans, corpus callosum (CC) [1]: 0.0058 min⁻¹
K^trans, cortex (CTX) [1]: 0.0145 min⁻¹
K^trans, hippocampus (HC) [1]: 0.0040 min⁻¹
K^trans, hypothalamus (HT) [1]: 0.0134 min⁻¹
K^trans, cortex (CTX) (young mice): 0.0022 min⁻¹
K^trans, hippocampus (HC) (young mice): 0.0019 min⁻¹
K^trans, hypothalamus (HT) (young mice): 0.0026 min⁻¹
K^trans, muscle (young mice): 0.0028 min⁻¹
K^trans, corpus callosum (CC) (young mice): 0.0019 min⁻¹
